# B1: H4H10876P (antibody, human IgG4, V domains shown)
# VH: QVQLVQSGAEVKKPGASVKVSCKASEYTFSNYGISWVRQAPGQGLEWLGWIGAYSGFTKYAQKVQDRITMTTDASTTTAYMELRNLRSDDTAVYYCARVGTGTDSYFDFWGQGTLVTVSS
# VL: DIQMTQSPSSLSASVGDRVTITCRASQNINSHLNWYQQKPGKAPKLLIYTASSLQSGVPLRFSGSGSGTDFTLTISSLQPEDFGIYICQQTYITPLTFGGGTKVEIK
# notes: H4H prefix = human IgG4 Fc
# B2: H4H10871P (antibody, human IgG4, V domains shown)
# VH: QVQLVQSGAEVMKPGASVKVSCKSSDFAFTTYGISWVRQAPGQGLEWMGWISAYNGNTNYEQRFQGRITMTTDTSTTTVYMELRSLRSDDTAVYYCARDPDYCSSNTCSDAFDLWGQGTMVTVSS
# VL: DIQMTQSPSSLSASVRDRVTITCRASQGITNYLAWYQQKPGKVPKVLIYAASTLQSGVPSRFSGSGSGTEFTLAISSLQPEDVATYFCQQYGSAPWTFGQGTKVEIK
# notes: H4H prefix = human IgG4 Fc
# B3: H4H10863P (antibody, human IgG4, V domains shown)
# VH: QVQLVQSGAEVKKPGASVKVSCKASGYTFSSYGISWVRQAPGQGLEWMGWISAYNDNTQYAQKFQGRVTMTTDTSTSTAYMELRSLRSDDTAVYYCARVPLQWFGESFDHWGQGTLVTVSS
# VL: DIQMTQSPSSLSASVGDRVTITCRASQDINNYLNWFQQKPGKAPKLLIFSTSSLQSGVPSRFSGSGSGTDFTLTISSLQSEDFATYYCQQTFITPLTFGGGTKVEIK
# notes: H4H prefix = human IgG4 Fc
# B4: H4H10897P (antibody, human IgG4, V domains shown)
# VH: QVQLQESGPGLVKPSETLSLTCTVSGGSISDYYWSWIRQPPGKGLEWIGHIYYSGSTNHNPSLKSRVAISVDTSKNQFSLRLYSVTAADTAVYYCARDGYSSSSGFYYFGMDVWGQGTTVTVSS
# VL: DIQLTQSPSFLSASVGDRVTITCWASQDINSYLAWYQQKPGKAPKLLIFAASTLQGGVPSRFSGSGSGTEFTLTISSLQPEDFATYYCQHLSSFPPTFGQGTRLEIK
# notes: H4H prefix = human IgG4 Fc
# B5: H4H10905P (antibody, human IgG4, V domains shown)
# VH: QVQLVQSGAEVKKPGTSVKVSCKASGYTFTNYGISWVRQAPGQGLEWLGWISAYNDNTDYAQKLQARVTMTTDTFTSTAYMDLRSLRSDDTAVYYCARVPITGTTSSFDFWGQGTLVTVSS
# VL: DIQMTQSPSSLSASVGDRVTISCRASQTIYSYLNWFQQKPGKAPKLLIYDASSLQSGVPSRFSGSGSGTHFTLTISSLQPEDFATYFCQQTYSTPLTFGGGTKVEIK
# notes: H4H prefix = human IgG4 Fc
# Target: T1, human IL-25 expressed with a C-terminal myc-myc-hexahistidine tag (human)
# T1 chain: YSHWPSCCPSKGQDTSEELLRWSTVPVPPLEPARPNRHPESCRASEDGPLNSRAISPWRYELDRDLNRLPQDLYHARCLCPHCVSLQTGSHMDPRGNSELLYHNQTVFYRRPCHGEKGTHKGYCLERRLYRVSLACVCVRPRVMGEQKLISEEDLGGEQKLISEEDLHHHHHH
# Test: cell-based or functional assay
row,Binder,"IC50, luciferase reporter cells, 5 pM hIL-25-MMH [M]"
1,B1,4.6e-10
2,B2,3.2e-10
3,B3,6.9e-10
4,B4,4.6e-10
5,B5,5.1e-10

# Target: T2, monkey IL-25 expressed with a C-terminal myc-myc-hexahistidine tag (M. fascicularis (cynomolgus monkey))
# T2 chain: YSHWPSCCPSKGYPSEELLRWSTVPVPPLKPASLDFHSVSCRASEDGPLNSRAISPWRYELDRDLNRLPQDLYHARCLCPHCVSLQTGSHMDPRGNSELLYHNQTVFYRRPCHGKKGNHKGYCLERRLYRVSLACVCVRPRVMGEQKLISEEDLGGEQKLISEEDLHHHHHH
# Test: cell-based or functional assay
row,Binder,"IC50, luciferase reporter cells, 12 pM MfIL-25-MMH [M]"
1,B1,2.1e-10
2,B2,8.8e-11
3,B3,3.5e-10
4,B4,4e-10
5,B5,2.1e-10

# Target: T3, mouse IL-25 expressed with a C-terminal myc-myc-hexahistidine tag (mouse)
# T3 chain: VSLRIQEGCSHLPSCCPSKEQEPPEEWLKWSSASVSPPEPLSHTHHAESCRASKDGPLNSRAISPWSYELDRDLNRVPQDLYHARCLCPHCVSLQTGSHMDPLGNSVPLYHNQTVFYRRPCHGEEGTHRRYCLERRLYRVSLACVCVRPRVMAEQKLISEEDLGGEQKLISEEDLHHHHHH
# Test: cell-based or functional assay
row,Binder,"IC50, luciferase reporter cells, 10 pM mIL-25-MMH [M]"
1,B1,8.8e-10
2,B2,6.7e-10
3,B3,4.3e-09
4,B4,1.5e-08
5,B5,6.8e-10

# Target: T1, human IL-25 expressed with a C-terminal …
# Test: cell-based or functional assay
# Remark: another data set of the same source
Binder,IC50 values of antibodies for blocking IL-5 release from Donor #727058-059 [nM],IC50 values of antibodies for blocking IL-5 release from Donor #727060 [nM]
B1,0.172,0.13
B2,0.118,0.636

# Target: T2, monkey IL-25 expressed with a …
# Test: SPR Biacore, antibody captured, 37C;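 on 100 nM Monkey IL-25-MMH Bound (RU): biacore 4000 surface plasmon resonance biosensor measuring binding of IL-25-MMH to purified anti-IL-25 antibodies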;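 on 100 nM Mouse IL-25-MMH Bound (RU): Real-time sensorgrams of IL-25-MMH binding to purified anti-IL-25 antibodies, rate constants obtained by fitting a 1:1 binding model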
Binder,100 nM Monkey IL-25-MMH Bound (RU),Kd [nM],koff [s⁻¹],kon [M⁻¹ s⁻¹],t½ [h]
B1,64,0.104,5.45e-05,524000,3.53
B2,54,0.0546,7.4e-05,1.35e+06,2.6
B3,51,0.0685,8.07e-05,1.18e+06,2.38
B4,49,0.189,0.000231,1.22e+06,0.833
B5,59,0.135,9.01e-05,668000,2.13

# Target: T3, mouse IL-25 expressed with a C-terminal …
# Test: SPR Biacore, antibody captured, 25C;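 on 100 nM Rat IL-25-MMH Bound (RU): purified anti-IL-25 antibodies were tested by real-time surface plasmon resonance on a Biacore 4000, with rate constants obtained from sensorgram fits to a 1:1 binding model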
# Method: (§1) Equilibrium dissociation constants (KD values) for IL-25 binding to purified anti-IL-25 antibodies were determined using a real-time surface plasmon resonance biosensor assay on a Biacore 4000 instrument (GE Healthcare). […] All the IL-25 reagents were expressed with a C-terminal myc-myc-hexahistidine tag (referred to herein as “IL-25-MMH”). […] Kinetic association (kₐ) and dissociation (kd) rate constants were determined by fitting the real-time sensorgrams to a 1:1 binding model using Scrubber 2.0c curve fitting software.
Binder,100 nM Mouse IL-25-MMH Bound (RU),Kd [nM],koff [s⁻¹],kon [M⁻¹ s⁻¹],t½ [h]
B1,40,0.57,9.89e-05,174000,1.95
B2,30,0.918,0.000111,121000,1.73
B3,22,2.67,0.000149,55700,1.3
B4,20,7.05,0.00104,148000,0.183
B5,43,1.17,0.000145,124000,1.33

# Target: T3, mouse IL-25 expressed with a C-terminal …
# Test: SPR Biacore, antibody captured, 37C;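 on 100 nM Monkey IL-25-MMH Bound (RU): biacore 4000 surface plasmon resonance biosensor measuring binding of IL-25-MMH to purified anti-IL-25 antibodies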;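 on 100 nM Mouse IL-25-MMH Bound (RU): Real-time sensorgrams of IL-25-MMH binding to purified anti-IL-25 antibodies, rate constants obtained by fitting a 1:1 binding model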
# Method: as §1
Binder,100 nM Mouse IL-25-MMH Bound (RU),Kd [nM],koff [s⁻¹],kon [M⁻¹ s⁻¹],t½ [h]
B1,51,0.243,8.97e-05,369000,2.15
B2,41,0.258,8.29e-05,322000,2.32
B3,37,1.14,0.000153,134000,1.27
B4,17,36.2,0.00641,177000,0.03
B5,47,0.441,0.000178,403000,1.08

# Target: T4, rat IL-25 expressed with a C-terminal myc-myc-hexahistidine tag (rat)
# T4 construct: also called Rat IL-25-MMH
# T4 chain: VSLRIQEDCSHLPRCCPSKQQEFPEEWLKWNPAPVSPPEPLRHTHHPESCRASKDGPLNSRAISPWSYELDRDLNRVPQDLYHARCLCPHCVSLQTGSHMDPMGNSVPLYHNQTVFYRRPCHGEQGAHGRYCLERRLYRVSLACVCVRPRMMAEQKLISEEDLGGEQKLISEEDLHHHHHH
# Test: SPR Biacore, antibody captured, 25C;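 on 100 nM Rat IL-25-MMH Bound (RU): purified anti-IL-25 antibodies were tested by real-time surface plasmon resonance on a Biacore 4000, with rate constants obtained from sensorgram fits to a 1:1 binding model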
Binder,100 nM Rat IL-25-MMH Bound (RU),Kd [nM],koff [s⁻¹],kon [M⁻¹ s⁻¹],t½ [h]
B1,45,0.341,8.81e-05,259000,2.18
B2,37,0.132,7.23e-05,548000,2.67
B3,34,1.07,0.000164,153000,1.17
B4,23,2.42,0.000807,333000,0.233
B5,45,0.81,0.000135,167000,1.42

# Target: T4, rat IL-25 expressed with a C-terminal …
# Test: SPR Biacore, antibody captured, 37C;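 on 100 nM Monkey IL-25-MMH Bound (RU): biacore 4000 surface plasmon resonance biosensor measuring binding of IL-25-MMH to purified anti-IL-25 antibodies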;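 on 100 nM Mouse IL-25-MMH Bound (RU): Real-time sensorgrams of IL-25-MMH binding to purified anti-IL-25 antibodies, rate constants obtained by fitting a 1:1 binding model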
# Method: as §1
Binder,100 nM Rat IL-25-MMH Bound (RU),Kd [nM],koff [s⁻¹],kon [M⁻¹ s⁻¹],t½ [h]
B1,53,0.238,0.000107,450000,1.8
B2,45,0.0602,5.64e-05,937000,3.42
B3,41,0.72,0.000341,474000,0.567
B4,22,24.6,0.00601,245000,0.0317
B5,49,0.377,0.000181,481000,1.07

# Target: T1, human IL-25 expressed with a C-terminal …
# Test: BLI Octet, hIL-25-MMH captured on anti-Penta-His sensor, 25C
# Method: Binding competition between anti-IL-25 monoclonal antibodies was determined using a real time, label-free bio-layer interferometry assay on an Octet QK384 biosensor (Pall ForteBio Corp.).
# The biosensors were washed in HBST kinetics buffer in between every step of the experiment. The real-time binding response was monitored during the course of the experiment and the binding response at the end of every step was recorded.
row,Binder,50 ug/mL mAb-1 Binding (nm)
1,B1,1.07
2,B2,1.12
3,B3,1.13
4,B4,1.12
5,B5,1.59

# Target: T1, human IL-25 expressed with a C-terminal …
# Test: competition ELISA, 2 nM hIL-25-MMH binding to coated hIL-17RB-hFc
# Method: (§2) Data analysis was performed using a sigmoidal dose-response model within Prism™ software (GraphPad). […] The absorbance values of the wells containing the highest concentration for each antibody were used to determine the percent maximum blockade.
row,Binder,% Maximum blocking of 200 nM antibody [%]
1,B1,89
2,B2,92
3,B3,87
4,B4,94
5,B5,86

# Target: T1, human IL-25 expressed with a C-terminal …
# Test: competition ELISA, 2 nM hIL-25-MMH binding to coated hIL-17RB-hFc; (*) below theoretical bottom of the assay
# Method: as §2
row,Binder,IC50 [nM]
1,B1,0.65
2,B2,0.71
3,B3,0.92
4,B4,0.32
5,B5,0.53
